Data as given in US20190185562A1.
One block for each binder: values may come before it.

Legend:
[1] = target: gp130 expressed endogenously on IMR-32/STAT3-Luc cells (human) (UniProt P40189); test: cell-based or functional assay
[2] = target: wild-type human GP130 on HEK293.STAT3.Luc.GP130.hLEPR reporter cells (human) (UniProt P40189); test: cell-based or functional assay
wild-type human GP130 on HEK293.STAT3.Luc.GP130.hLEPR reporter cells (human), sequence (P40189 23-918): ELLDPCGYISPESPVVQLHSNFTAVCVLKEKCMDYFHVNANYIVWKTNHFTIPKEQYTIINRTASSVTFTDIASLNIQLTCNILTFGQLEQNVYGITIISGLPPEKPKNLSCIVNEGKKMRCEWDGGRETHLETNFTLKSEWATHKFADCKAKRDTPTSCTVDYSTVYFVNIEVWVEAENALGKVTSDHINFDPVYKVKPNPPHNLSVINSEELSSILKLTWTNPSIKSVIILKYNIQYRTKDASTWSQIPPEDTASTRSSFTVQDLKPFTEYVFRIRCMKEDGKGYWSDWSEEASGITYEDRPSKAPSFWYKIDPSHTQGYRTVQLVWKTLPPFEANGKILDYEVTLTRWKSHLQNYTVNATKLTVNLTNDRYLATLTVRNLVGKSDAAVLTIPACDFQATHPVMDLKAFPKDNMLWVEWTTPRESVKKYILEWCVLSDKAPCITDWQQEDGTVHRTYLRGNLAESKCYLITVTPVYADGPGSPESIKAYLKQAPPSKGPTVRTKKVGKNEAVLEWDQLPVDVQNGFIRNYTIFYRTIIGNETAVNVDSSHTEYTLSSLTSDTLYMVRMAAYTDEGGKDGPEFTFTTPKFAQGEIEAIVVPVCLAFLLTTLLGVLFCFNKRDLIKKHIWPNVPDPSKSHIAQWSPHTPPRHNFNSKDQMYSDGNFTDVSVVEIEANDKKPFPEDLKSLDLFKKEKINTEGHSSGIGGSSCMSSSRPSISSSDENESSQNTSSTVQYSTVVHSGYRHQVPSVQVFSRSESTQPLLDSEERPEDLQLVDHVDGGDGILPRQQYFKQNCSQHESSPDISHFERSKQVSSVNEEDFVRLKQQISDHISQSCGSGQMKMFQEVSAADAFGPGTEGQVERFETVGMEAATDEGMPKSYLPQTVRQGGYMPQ

gp130 expressed endogenously on IMR-32/STAT3-Luc cells (human), sequence (P40189 23-918): as above

EC50 of activation of IMR-32/STAT3-luc cells (STAT3-luciferase) [1]: 0.004 nM
B1: human Ciliary Neurotrophic Factor (ligand, UniProt P26441 2-200, looked up)
chain: AFTEHSPLTPHRRDLCSRSIWLARKIRSDLTALTESYVKHQGLNKNINLDSADGMPVASTDQWSELTEAERLQENLQAYRTFHVLLARLLEDQQVHFTPTEGDFHQAIHTLLLQVAAFAYQIEELMILLEYKIPRNEADGMPINVGDGGLFEKKLWGLKVLQELSQWTVRSIHDLRFISSHQTGIPARGSHYIANNKKM

EC50 of activation of IMR-32/STAT3-luc cells (STAT3-luciferase) [1]: 0.054 nM
EC50 (M), STAT3-luciferase activation of HEK293.STAT3.Luc.GP130.hLEPR (Y1141F) cells [2]: 5.92e-10 M
EC50 (M), STAT3-luciferase activation of HEK293.STAT3.Luc.GP130.hLEPR (a) cells [2]: 1.21e-10 M
Percentage activation as compared to hOSM [2]: 100%
Percentage maximum activation as compared to hOSM [2]: 100%
B2: human Oncostatin M (ligand, UniProt P13725 26-252, looked up)
chain: AAIGSCSKEYRVLLGQLQKQTDLMQDTSRLLDPYIRIQGLDVPKLREHCRERPGAFPSEETLRGLGRRGFLQTLNATLGCVLHRLADLEQRLPKAQDLERSGLNIEDLEKLQMARPNILGLRNNIYCMAQLLDNSDTAEPTKAGRGASQPPTPTPASDAFQRKLEGCRFLHGYHRFMHSVGRVFSKWGESPNRSRRHSPHQALRKGVRRTRPSRKGKRLMTRGQLPR
